Where “and” joins values, the source holds several entries; their conditions need not be identical. Equal entries are not always repeated.

In one assay the target is T1, DR5sh79-115ECDdelHis (human/mouse chimeric).
T1 construct: also called DR5sh79-115ECDdel-FcRbHisCtag
Briefly: ECLIA, coated DR5sh79-115ECDdelHis, detection with SULFO-TAG anti-human IgG.

Assay [1] addresses T2, Cyno DR5Mfdel-K420N (cynomolgus monkey DR5 with deletion of amino acids 185-213 and death domain … (cynomolgus monkey)).
T2 construct: Transiently expressed on the membrane of CHO-S cells; Based on NCBI XP_005562887.1
T2 chain: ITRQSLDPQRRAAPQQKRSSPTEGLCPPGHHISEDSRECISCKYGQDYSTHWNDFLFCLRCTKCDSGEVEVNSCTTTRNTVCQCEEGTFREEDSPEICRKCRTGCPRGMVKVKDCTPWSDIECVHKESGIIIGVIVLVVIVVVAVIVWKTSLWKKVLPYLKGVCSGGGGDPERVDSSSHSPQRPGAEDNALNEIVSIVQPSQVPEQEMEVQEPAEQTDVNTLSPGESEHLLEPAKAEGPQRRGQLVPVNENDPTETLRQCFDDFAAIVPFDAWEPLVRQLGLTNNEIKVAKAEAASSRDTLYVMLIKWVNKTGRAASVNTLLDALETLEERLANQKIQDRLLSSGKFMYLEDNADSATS
Put plainly: flow cytometry on CHO-S cells transiently expressing cynomolgus monkey DR5; average of n = 4, SD in brackets. In general terms: Flow cytometry measures light scatter and fluorescence of single cells or particles in a stream.

In another assay the target is T3, DR5sh139-166ECDdelHis (human/mouse chimeric).
T3 construct: also called DR5sh139-166ECDdel-FcRbHisCtag
T3 chain: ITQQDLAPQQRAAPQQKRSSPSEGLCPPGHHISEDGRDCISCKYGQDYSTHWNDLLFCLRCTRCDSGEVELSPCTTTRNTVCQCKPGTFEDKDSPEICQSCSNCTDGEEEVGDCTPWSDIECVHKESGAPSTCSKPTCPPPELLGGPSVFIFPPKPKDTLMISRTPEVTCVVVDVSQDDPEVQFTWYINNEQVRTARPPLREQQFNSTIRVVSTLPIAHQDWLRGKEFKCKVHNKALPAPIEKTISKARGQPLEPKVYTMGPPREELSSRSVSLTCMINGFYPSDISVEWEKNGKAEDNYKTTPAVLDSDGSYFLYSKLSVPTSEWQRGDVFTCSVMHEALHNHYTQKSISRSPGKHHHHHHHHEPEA
Put plainly: ECLIA, coated DR5sh139-166ECDdelHis, detection with SULFO-TAG anti-human IgG.

B1: IgG1-hDR5-05-E430G (antibody, V domains shown)
VH: QVQLVQSGAEVKKPGASVKVSCKASGFNIKDTHMHWVRQAPGQRLEWIGRIDPANGNTEYDQKFQGRVTITVDTSASTAYMELSSLRSEDTAVYYCARWGTNVYFAYWGQGTLVTVSS
VL: DIQLTQSPSSLSASVGDRVTITCSASSSVSYMYWYQQKPGKAPKPWIYRTSNLASGVPSRFSGSGSGTDFTLTISSLQPEDFATYYCQQYHSYPPTFGGGTKVEIKR
notes: also called second antibody; component of HexaBody-DR5/DR5
With B1, in the assay with DR5sh79-115ECDdelHis, the binding result is “no binding”. Moreover, the EC50 (as a rule, the concentration at which the effect is half-maximal) in assay [1] was 0.17 µg/mL and 1.16 nM.

B2: IgG1-hDR5-01-G56T-E430G (antibody, V domains shown)
VH: EVQLQQSGAEVVKPGASVKLSCKASGFNIKDTFIHWVKQAPGQGLEWIGRIDPANTNTKYDPKFQGKATITTDTSSNTAYMELSSLRSEDTAVYYCVRGLYTYYFDYWGQGTLVTVSS
VL: EIVMTQSPATLSVSPGERATLSCRASQSISNNLHWYQQKPGQAPRLLIKFASQSITGIPARFSGSGSGTEFTLTISSLQSEDFAVYYCQQGNSWPYTFGQGTKLEIKR
notes: also called first antibody; component of HexaBody-DR5/DR5
Turning to B2, the EC50 in assay [1] was 0.27 µg/mL and 1.77 nM. Further, the binding result in the assay with DR5sh139-166ECDdelHis is “no binding”.

Values taken from patent publication US20230293680A1 (Genmab, published 2023).
